This note sets out measurements from paper PMC4909229, “Characterization of Staphylococcus aureus Primosomal DnaD Protein: Highly Conserved C-Terminal Region Is Crucial for ssDNA and PriA Helicase Binding but Not for DnaA Protein-Binding and Self-Tetrameri”.

Data set [1] concerns the target T1, SaDnaD1-195 (Staphylococcus aureus subsp. aureus ED98, UniProt Q9EUT0 1-195, del196-228).
T1 sequence: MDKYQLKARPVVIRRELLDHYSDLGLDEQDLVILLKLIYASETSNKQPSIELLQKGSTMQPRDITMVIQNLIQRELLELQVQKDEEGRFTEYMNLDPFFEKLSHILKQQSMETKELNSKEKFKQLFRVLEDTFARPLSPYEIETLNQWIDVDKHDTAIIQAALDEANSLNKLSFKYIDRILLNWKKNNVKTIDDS
Kind of data set: tryptophan fluorescence quenching; DNA:protein ratio 1; EMSA: 20 mM Tris-HCl pH 8.0, 100 mM NaCl, 25 C, 30 min, 1.7 nM DNA, gel at 4 C in TBE; fluorescence: 20 mM Tris-HCl pH 8.0, 200 or 500 mM NaCl, 0.1 uM tetramer. The conditions noted are these: protein: recombinant; tags: C-terminal His tag (pET21e); chain copies: 4; label: 5'-32P (EMSA); unlabeled in fluorescence titration. Background: A gel shift assay detects complexes by their altered migration in electrophoresis.

A further data set has as its target T2, SaDnaD1-204 (Staphylococcus aureus subsp. aureus ED98, UniProt Q9EUT0 1-204, del205-228).
T2 sequence: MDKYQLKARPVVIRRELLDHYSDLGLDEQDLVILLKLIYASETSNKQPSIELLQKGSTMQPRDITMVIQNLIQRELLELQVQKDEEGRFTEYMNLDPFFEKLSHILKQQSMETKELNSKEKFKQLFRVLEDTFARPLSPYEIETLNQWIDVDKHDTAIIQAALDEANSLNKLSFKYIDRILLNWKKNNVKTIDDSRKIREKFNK
The description is as above. The conditions noted are these: protein: recombinant; tags: C-terminal His tag (pET21e); chain copies: 4; label: 5'-32P (EMSA); unlabeled in fluorescence titration.

Data set [2] has as its target T3, SaDnaD1-200 (Staphylococcus aureus subsp. aureus ED98, UniProt Q9EUT0 1-200, del201-228).
T3 sequence: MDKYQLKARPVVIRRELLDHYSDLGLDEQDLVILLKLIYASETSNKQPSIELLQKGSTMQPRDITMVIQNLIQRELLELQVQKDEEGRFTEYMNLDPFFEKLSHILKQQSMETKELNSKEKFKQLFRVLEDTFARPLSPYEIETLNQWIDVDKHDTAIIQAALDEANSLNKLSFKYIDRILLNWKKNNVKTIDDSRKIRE
Described as above. The conditions noted are these: protein: recombinant; tags: C-terminal His tag (pET21e); chain copies: 4; label: 5'-32P (EMSA); unlabeled in fluorescence titration.

For data set [3], the target named is T1, SaDnaD1-195. Kind of data set: EMSA; EMSA: 20 mM Tris-HCl pH 8.0, 100 mM NaCl, 25 C, 30 min, 1.7 nM DNA, gel at 4 C in TBE; fluorescence: 20 mM Tris-HCl pH 8.0, 200 or 500 mM NaCl, 0.1 uM tetramer. The conditions noted are these: protein: recombinant; tags: C-terminal His tag (pET21e); chain copies: 4; label: 5'-32P.
The target of data set [4] is T3, SaDnaD1-200. The data set is described as above. As to conditions: protein: recombinant; tags: C-terminal His tag (pET21e); chain copies: 4; label: 5'-32P.

B1: dT65 (ssDNA)
DNA: TTTTTTTTTTTTTTTTTTTTTTTTTTTTTTTTTTTTTTTTTTTTTTTTTTTTTTTTTTTTTTTTT
In the case of B1, the binding signal with SaDnaD1-195 [1] was under 5 % quenching; with SaDnaD1-204, about 20 % quenching; in the data set with SaDnaD1-200 [2], under 10 % quenching.
In the case of TTTTTTTTTTTTTTTTTTTTTTTTTTTTTTTTTTTTTTTT (ssDNA) [dT40], the binding result in the data set with SaDnaD1-195 [3] and with SaDnaD1-200 [4] was “no binding” in each case.
